B1: BBSome complex member BBS2 (Homo sapiens), Q9BXC9 (parent)
chain: MLLPVFTLKLRHKISPRMVAIGRYDGTHPCLAAATQTGKVFIHNPHTRNQHVSASRVFQSPLESDVSLLSINQAVSCLTAGVLNPELGYDALLVGTQTNLLAYDVYNNSDLFYREVADGANAIVLGTLGDISSPLAIIGGNCALQGFNHEGSDLFWTVTGDNVNSLALCDFDGDGKKELLVGSEDFDIRVFKEDEIVAEMTETEIVTSLCPMYGSRFGYALSNGTVGVYDKTSRYWRIKSKNHAMSIHAFDLNSDGVNELITGWSNGKVDARSDRTGEVIFKDNFSSAIAGVVEGDYRMDGHIQLICCSVDGEIRGYLPGTAEMRGNLMDTSAEQDLIRELSQKKQNLLLELRNYEENAKAELASPLNEADGHRGIIPANTRLHTTLSVSLGNETQTAHTELRISTSNDTIIRAVLIFAEGIFTGESHVVHPSIHNLSSSICIPIVPPKDVPVDLHLKAFVGYRSSTQFHVFESTRQLPRFSMYALTSLDPASEPISYVNFTIAERAQRVVVWLGQNFLLPEDTHIQNAPFQVCFTSLRNGGHLHIKIKLSGEITINTDDIDLAGDIIQSMASFFAIEDLQVEADFPVYFEELRKVLVKVDEYHSVHQKLSADMADHSNLIRSLLVGAEDARLMRDMKTMKSRYMELYDLNRDLLNGYKIRCNNHTELLGNLKAVNQAIQRAGRLRVGKPKNQVITACRDAIRSNNINTLFKIMRVGTASS
partner: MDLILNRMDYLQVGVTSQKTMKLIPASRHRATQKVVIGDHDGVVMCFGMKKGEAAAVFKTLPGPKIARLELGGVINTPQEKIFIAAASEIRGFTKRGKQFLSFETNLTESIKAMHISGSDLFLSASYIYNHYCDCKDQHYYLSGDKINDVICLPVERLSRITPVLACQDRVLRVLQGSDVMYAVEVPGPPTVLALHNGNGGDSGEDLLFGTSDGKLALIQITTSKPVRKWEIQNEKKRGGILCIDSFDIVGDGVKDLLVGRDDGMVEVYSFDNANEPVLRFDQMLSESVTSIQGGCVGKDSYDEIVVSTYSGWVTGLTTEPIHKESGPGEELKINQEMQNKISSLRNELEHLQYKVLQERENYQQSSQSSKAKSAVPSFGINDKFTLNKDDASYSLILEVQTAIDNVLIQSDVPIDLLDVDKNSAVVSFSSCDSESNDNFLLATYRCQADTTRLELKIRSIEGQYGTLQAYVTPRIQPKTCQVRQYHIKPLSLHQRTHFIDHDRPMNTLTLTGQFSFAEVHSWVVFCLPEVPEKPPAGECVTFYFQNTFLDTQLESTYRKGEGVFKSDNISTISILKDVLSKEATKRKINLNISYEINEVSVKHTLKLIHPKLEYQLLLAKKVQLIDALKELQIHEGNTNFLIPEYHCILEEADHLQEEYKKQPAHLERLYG

Variants of: B1
Conditions: with BBS7, Q8IWZ6-2
H604K was tested, and the “effect of a mutation on the interaction” value was “with no effect”.
In the case of F535E, the “effect of a mutation on the interaction” value is reported as “with no effect”.
With V512K the “effect of a mutation on the interaction” value was “with no effect”.
For V512A, the “effect of a mutation on the interaction” value was “with no effect”.
For P366E, the “effect of a mutation on the interaction” value was “with no effect”.
In the case of N408S, the “effect of a mutation on the interaction” value is reported as “disrupting interaction strength”.
With V499A the “effect of a mutation on the interaction” value was “with no effect”.
With A414K the “effect of a mutation on the interaction” value was “with no effect”.
With K345A the “effect of a mutation on the interaction” value was “with no effect”.
With A459K the “effect of a mutation on the interaction” value was “disrupting interaction strength”.
For Q468E, the “effect of a mutation on the interaction” value was “with no effect”.
For V510K, the “effect of a mutation on the interaction” value was “disrupting interaction strength”.
In the case of V533K, the “effect of a mutation on the interaction” value is reported as “with no effect”.
S488K was tested, and the “effect of a mutation on the interaction” value was “with no effect”.
With R382K the “effect of a mutation on the interaction” value was “with no effect”.
With A682E the “effect of a mutation on the interaction” value was “with no effect”.
For N706E, the “effect of a mutation on the interaction” value was “with no effect”.
In the case of P495A, the “effect of a mutation on the interaction” value is reported as “with no effect”.
With I621E the “effect of a mutation on the interaction” value was “with no effect”.
In the case of V451A, the “effect of a mutation on the interaction” value is reported as “with no effect”.
With L519A the “effect of a mutation on the interaction” value was “with no effect”.
N347A was tested, and the “effect of a mutation on the interaction” value was “with no effect”.
In the case of I695K, the “effect of a mutation on the interaction” value is reported as “with no effect”.
G462A was tested, and the “effect of a mutation on the interaction” value was “with no effect”.
T385E was tested, and the “effect of a mutation on the interaction” value was “disrupting interaction strength”.
For T385K, the “effect of a mutation on the interaction” value was “with no effect”.
With G657E the “effect of a mutation on the interaction” value was “with no effect”.
In the case of G657A, the “effect of a mutation on the interaction” value is reported as “with no effect”.
With P530A the “effect of a mutation on the interaction” value was “with no effect”.
With N557A the “effect of a mutation on the interaction” value was “with no effect”.
For S611E, the “effect of a mutation on the interaction” value was “with no effect”.
L363E was tested, and the “effect of a mutation on the interaction” value was “with no effect”.
For L486K, the “effect of a mutation on the interaction” value was “with no effect”.
In the case of S342E, the “effect of a mutation on the interaction” value is reported as “with no effect”.
With L457C the “effect of a mutation on the interaction” value was “disrupting interaction strength”.
For L654A, the “effect of a mutation on the interaction” value was “with no effect”.
In the case of G392A, the “effect of a mutation on the interaction” value is reported as “with no effect”.
R684K was tested, and the “effect of a mutation on the interaction” value was “with no effect”.
In the case of L650E, the “effect of a mutation on the interaction” value is reported as “with no effect”.
For A628E, the “effect of a mutation on the interaction” value was “with no effect”.
In the case of P432E, the “effect of a mutation on the interaction” value is reported as “with no effect”.
With D566E the “effect of a mutation on the interaction” value was “with no effect”.
With N517K the “effect of a mutation on the interaction” value was “disrupting interaction strength”.
In the case of V598K, the “effect of a mutation on the interaction” value is reported as “with no effect”.
With L478A the “effect of a mutation on the interaction” value was “disrupting interaction strength”.
In the case of I496K, the “effect of a mutation on the interaction” value is reported as “with no effect”.
In the case of I443E, the “effect of a mutation on the interaction” value is reported as “with no effect”.
F469K was tested, and the “effect of a mutation on the interaction” value was “with no effect”.
F501A was tested, and the “effect of a mutation on the interaction” value was “with no effect”.
For D523K, the “effect of a mutation on the interaction” value was “with no effect”.
With A529E the “effect of a mutation on the interaction” value was “with no effect”.
In the case of G326K, the “effect of a mutation on the interaction” value is reported as “with no effect”.
L668E was tested, and the “effect of a mutation on the interaction” value was “with no effect”.
With I707A the “effect of a mutation on the interaction” value was “with no effect”.
In the case of R699E, the “effect of a mutation on the interaction” value is reported as “with no effect”.
In the case of N708K, the “effect of a mutation on the interaction” value is reported as “with no effect”.
In the case of N708A, the “effect of a mutation on the interaction” value is reported as “with no effect”.
With R652E the “effect of a mutation on the interaction” value was “with no effect”.
In the case of D559K, the “effect of a mutation on the interaction” value is reported as “with no effect”.
With R339K the “effect of a mutation on the interaction” value was “with no effect”.
In the case of V415E, the “effect of a mutation on the interaction” value is reported as “with no effect”.
In the case of L367K, the “effect of a mutation on the interaction” value is reported as “with no effect”.
With M714E the “effect of a mutation on the interaction” value was “with no effect”.
R353K was tested, and the “effect of a mutation on the interaction” value was “with no effect”.
In the case of S427A, the “effect of a mutation on the interaction” value is reported as “with no effect”.
In the case of L341A, the “effect of a mutation on the interaction” value is reported as “with no effect”.
In the case of V626A, the “effect of a mutation on the interaction” value is reported as “with no effect”.
With L625K the “effect of a mutation on the interaction” value was “with no effect”.
With R506K the “effect of a mutation on the interaction” value was “with no effect”.
H431E was tested, and the “effect of a mutation on the interaction” value was “with no effect”.
With E401A the “effect of a mutation on the interaction” value was “with no effect”.
For N368A, the “effect of a mutation on the interaction” value was “with no effect”.
For N368K, the “effect of a mutation on the interaction” value was “with no effect”.
In the case of S623A, the “effect of a mutation on the interaction” value is reported as “with no effect”.
In the case of H384E, the “effect of a mutation on the interaction” value is reported as “with no effect”.
In the case of F460A, the “effect of a mutation on the interaction” value is reported as “with no effect”.
S439A was tested, and the “effect of a mutation on the interaction” value was “with no effect”.
For A701K, the “effect of a mutation on the interaction” value was “with no effect”.
In the case of F481A, the “effect of a mutation on the interaction” value is reported as “with no effect”.
In the case of I554K, the “effect of a mutation on the interaction” value is reported as “with no effect”.
In the case of T410K, the “effect of a mutation on the interaction” value is reported as “with no effect”.
With T410A the “effect of a mutation on the interaction” value was “with no effect”.
For T397A, the “effect of a mutation on the interaction” value was “with no effect”.
In the case of S497K, the “effect of a mutation on the interaction” value is reported as “with no effect”.
G421A was tested, and the “effect of a mutation on the interaction” value was “with no effect”.
For Y603K, the “effect of a mutation on the interaction” value was “with no effect”.
For D636E, the “effect of a mutation on the interaction” value was “with no effect”.
For R681K, the “effect of a mutation on the interaction” value was “with no effect”.
With G542E the “effect of a mutation on the interaction” value was “with no effect”.
With Y589A the “effect of a mutation on the interaction” value was “with no effect”.
For V588K, the “effect of a mutation on the interaction” value was “with no effect”.
